Two substances from US20060015949A1 can be followed below.

As usually defined, the koff is the first-order rate constant of dissociation. As usually defined, the kon is the second-order rate constant of association.

The target in assay [1] is recombinant soluble human CD4 (human) (UniProt P01730). The assay can be described thus: SPR, sCD4 amine-coupled to sensor chip, mAb flowed over.
For assay [2] the target is unchanged. The experiment in a line: BIAcore, rCD4 coupled to chip, mAb flowed over (avidity).
In assay [3] the target is native human CD4 on the cell surface (human) (UniProt P01730). The assay can be described thus: flow cytometry, serial dilutions on SupT1 cells, half-maximal fluorescence. A general note: Flow cytometry measures light scatter and fluorescence of single cells or particles in a stream.
In assay [4] the target is recombinant soluble human CD4 (human) (UniProt P01730). The assay can be described thus: BIAcore, mAb captured by goat anti-human IgG Fc on chip, rCD4 flowed over (affinity). On the technique in general: SPR reads the build-up and loss of mass on a sensor chip optically.
The target is the same in assay [5]. The experiment in a line: ratio of Ka on rCD4 (BIAcore) to Ka on nCD4 (SupT1 flow cytometry).
For assay [6] the target is unchanged. The experiment in a line: BIAcore on rCD4 (column repeats Table 19).

Take Leu3a (antibody): in assay [1], the Ka amounted to 3.7e+10 M⁻¹, the dissociation rate constant (koff) was 0.00042 s⁻¹ and the kon stood at 150000 M⁻¹ s⁻¹. In assay [2], the Ka turned out to be 3.7e+10 M⁻¹, the koff was found to be 4.2e-06 s⁻¹ and the association rate constant (kon) came to 150000 M⁻¹ s⁻¹.
On to chimeric Leu3a (antibody), for which the Ka in assay [3] is 5.6e+09 M⁻¹; in assay [4] it was 6.6e+08 M⁻¹; in assay [6], 3.4e+10 M⁻¹; in assay [2] it was 3.4e+10 M⁻¹. In addition, the off-rate constant (koff) was determined as 0.00023 s⁻¹ in assay [4] and 1.2e-05 s⁻¹ in assay [2]. In addition, the results for the kon in assay [4] and in assay [2] were 150000 M⁻¹ s⁻¹ and 400000 M⁻¹ s⁻¹, respectively. In addition, the Ratio of Ka (rCD4/nCD4) in assay [5] turned out to be 6.1.
